What was measured:
[1] = molecular target: mutant Huntingtin exon 1 fragment with Q71, unlabelled (Q71); assay: FRET or BRET
[2] = molecular target: the molecule itself; assay: FRET or BRET

Chain of mutant Huntingtin exon 1 fragment with Q71, unlabelled (Q71) (P42858 whole entry, change not shown, the tested form may be a part): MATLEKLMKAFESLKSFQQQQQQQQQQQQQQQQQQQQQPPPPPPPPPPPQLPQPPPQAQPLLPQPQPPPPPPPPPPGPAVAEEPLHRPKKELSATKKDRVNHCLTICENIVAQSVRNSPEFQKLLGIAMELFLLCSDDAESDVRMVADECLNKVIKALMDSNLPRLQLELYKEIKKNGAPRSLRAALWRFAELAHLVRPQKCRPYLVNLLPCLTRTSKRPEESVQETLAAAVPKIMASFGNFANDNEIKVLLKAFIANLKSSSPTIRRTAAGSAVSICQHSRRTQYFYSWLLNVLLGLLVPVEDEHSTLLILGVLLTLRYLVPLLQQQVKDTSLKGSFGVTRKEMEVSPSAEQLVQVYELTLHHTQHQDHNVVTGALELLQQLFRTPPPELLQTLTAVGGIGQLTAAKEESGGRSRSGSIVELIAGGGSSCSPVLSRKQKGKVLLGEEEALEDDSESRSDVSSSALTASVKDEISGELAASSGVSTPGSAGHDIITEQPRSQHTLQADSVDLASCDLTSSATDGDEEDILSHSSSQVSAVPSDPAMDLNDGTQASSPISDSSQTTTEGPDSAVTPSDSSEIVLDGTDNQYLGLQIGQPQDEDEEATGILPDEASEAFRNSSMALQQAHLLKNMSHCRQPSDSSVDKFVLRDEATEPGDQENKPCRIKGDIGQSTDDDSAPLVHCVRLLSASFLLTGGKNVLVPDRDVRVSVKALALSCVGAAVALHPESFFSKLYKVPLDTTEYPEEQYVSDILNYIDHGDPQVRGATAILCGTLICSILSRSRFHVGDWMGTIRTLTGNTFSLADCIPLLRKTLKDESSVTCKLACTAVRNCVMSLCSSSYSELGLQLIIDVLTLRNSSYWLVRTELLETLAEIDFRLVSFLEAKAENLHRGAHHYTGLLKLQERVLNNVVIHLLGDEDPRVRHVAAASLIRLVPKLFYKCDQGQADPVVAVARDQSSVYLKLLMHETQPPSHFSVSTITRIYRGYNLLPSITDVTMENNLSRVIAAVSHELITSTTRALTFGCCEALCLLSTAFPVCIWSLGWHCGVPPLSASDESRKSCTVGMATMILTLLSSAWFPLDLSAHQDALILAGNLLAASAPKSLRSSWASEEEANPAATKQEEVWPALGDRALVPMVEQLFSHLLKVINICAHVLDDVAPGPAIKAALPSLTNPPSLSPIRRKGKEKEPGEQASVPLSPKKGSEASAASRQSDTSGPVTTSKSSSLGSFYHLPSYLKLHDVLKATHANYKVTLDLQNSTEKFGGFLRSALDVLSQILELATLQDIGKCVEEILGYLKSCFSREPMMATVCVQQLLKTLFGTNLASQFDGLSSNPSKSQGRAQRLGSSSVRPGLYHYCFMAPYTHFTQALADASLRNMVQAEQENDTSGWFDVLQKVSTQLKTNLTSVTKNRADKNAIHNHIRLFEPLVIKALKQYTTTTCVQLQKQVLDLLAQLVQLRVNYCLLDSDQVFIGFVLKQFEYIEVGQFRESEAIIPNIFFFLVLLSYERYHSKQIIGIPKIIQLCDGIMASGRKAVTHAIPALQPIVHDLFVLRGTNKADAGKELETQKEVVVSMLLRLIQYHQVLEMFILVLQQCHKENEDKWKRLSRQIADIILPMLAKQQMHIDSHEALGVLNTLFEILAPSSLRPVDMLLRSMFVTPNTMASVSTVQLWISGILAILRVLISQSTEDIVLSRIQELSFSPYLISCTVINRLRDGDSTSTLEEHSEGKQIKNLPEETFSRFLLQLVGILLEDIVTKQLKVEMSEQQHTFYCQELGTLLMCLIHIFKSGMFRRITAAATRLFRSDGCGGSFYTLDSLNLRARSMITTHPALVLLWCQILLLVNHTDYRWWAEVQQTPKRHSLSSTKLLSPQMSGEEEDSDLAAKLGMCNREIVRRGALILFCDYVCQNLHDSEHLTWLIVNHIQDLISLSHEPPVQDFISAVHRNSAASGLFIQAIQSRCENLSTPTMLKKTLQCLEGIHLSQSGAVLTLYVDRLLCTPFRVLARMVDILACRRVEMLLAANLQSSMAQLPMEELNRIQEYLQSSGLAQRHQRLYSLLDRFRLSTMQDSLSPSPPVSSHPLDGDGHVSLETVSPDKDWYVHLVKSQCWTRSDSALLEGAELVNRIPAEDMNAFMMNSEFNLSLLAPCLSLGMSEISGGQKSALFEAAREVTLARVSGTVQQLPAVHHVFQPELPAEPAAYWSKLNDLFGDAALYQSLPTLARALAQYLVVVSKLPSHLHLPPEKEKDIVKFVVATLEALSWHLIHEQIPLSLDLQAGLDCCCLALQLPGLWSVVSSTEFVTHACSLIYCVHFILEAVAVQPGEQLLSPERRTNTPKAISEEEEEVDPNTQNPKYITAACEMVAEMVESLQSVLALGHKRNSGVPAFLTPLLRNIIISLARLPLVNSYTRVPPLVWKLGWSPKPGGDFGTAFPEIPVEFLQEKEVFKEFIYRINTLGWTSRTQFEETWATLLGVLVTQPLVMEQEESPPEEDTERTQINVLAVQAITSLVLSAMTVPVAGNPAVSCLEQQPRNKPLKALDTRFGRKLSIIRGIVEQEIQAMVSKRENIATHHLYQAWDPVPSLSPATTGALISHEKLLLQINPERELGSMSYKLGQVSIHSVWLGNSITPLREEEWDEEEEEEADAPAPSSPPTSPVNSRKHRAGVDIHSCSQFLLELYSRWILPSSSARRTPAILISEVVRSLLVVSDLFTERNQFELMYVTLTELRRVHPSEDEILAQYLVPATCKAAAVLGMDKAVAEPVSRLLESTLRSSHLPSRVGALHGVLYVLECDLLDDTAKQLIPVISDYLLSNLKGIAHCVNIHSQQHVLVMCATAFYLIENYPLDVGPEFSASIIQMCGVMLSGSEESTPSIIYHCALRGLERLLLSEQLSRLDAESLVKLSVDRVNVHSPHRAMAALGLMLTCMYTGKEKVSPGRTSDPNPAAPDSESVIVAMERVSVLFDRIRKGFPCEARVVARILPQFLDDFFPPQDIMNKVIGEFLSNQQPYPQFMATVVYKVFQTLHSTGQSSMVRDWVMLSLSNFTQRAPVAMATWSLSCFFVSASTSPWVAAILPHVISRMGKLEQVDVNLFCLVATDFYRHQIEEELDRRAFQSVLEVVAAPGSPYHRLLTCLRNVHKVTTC

Molecule: DNAJB6b fused to mVenus-mCherry at its N-terminus (VC-DNAJB6) (from UniProt O75190-2 1-241) (natural protein)
- FRET/donor ratio in aggregates with Q71 [1]: 0.6

B1: FUS R521C fused to mVenus-mCherry at its N-terminus (VC-FUSR521C) (natural protein)
chain: MASNDYTQQATQSYGAYPTQPGQGYSQQSSQPYGQQSYSGYSQSTDTSGYGQSSYSSYGQSQNTGYGTQSTPQGYGSTGGYGSSQSSQSSYGQQSSYPGYGQQPAPSSTSGSYGSSSQSSSYGQPQSGSYSQQPSYGGQQQSYGQQQSYNPPQGYGQQNQYNSSSGGGGGGGGGGNYGQDQSSMSSGGGSGGGYGNQDQSGGGGSGGYGQQDRGGRGRGGSGGGGGGGGGGYNRSSGGYEPRGRGGGRGGRGGMGGSDRGGFNKFGGPRDQGSRHDSEQDNSDNNTIFVQGLGENVTIESVADYFKQIGIIKTNKKTGQPMINLYTDRETGKLKGEATVSFDDPPSAKAAIDWFDGKEFSGNPIKVSFATRRADFNRGGGNGRGGRGRGGPMGRGGYGGGGSGGGGRGGFPSGGGGGGGQQRAGDWKCPNPTCENMNFSWRNECNQCKAPKPDGPGGGPGGSHMGGNYGDDRRGGRGGYDRGGYRGRGGDRGGFRGGRGGGDRGGFGPGKMDSRGEHRQDCRERPY
- FRET/donor ratio in foci [2]: ~0.66

— doi:10.1101/2021.02.25.432866 (bioRxiv, 2021)
